According to article PMC3205929 (The Journal of neuroscience : the official journal of the …, 2011):

Target: DAT 587–590(4A) mutant expressed in PC12 cells (human, UniProt Q01959 1-620, 587–590(4A))
Assay: co-IP

B1: Rin, endogenous in PC12 cells (natural protein, rat (endogenous in PC12), UniProt Q5BJQ5 1-217, looked up)
chain: MEAENEAHCCPGSSSGGSREYKVVMLGAGGVGKSAVTMQFISHQFPDYHDPTIEDAYKTQVRIDNEPAYLDILDTAGQAEFTAMREQYMRGGEGFIICYSVTDRQSFQEAAKFKELIFQVRHTYEIPLVLVGNKIDLEQFRQVSTEEGMTLARDYNCAFFETSAALRFGIDDAFQGLVREIRRKESMLSLVERKLKRKDSLWKKIKASLKKKRENMI
basal interaction with Rin, % of wild type DAT: 300 % of wild type DAT/Rin interactions
